What all share (assay): SPR
(In general: Surface plasmon resonance follows binding to a sensor surface in real time, without labels.)

The target in experiment [1] is T1, TβRII-Fc (TβRII extracellular domain fused to human IgG1 Fc) (human, UniProt P37173-1 23-166).
Experiment [2] deals with T2, TβRII-SE/Fc (TβRII-Soluble Endogenous fused to the human IgG1 Fc domain) (human).
T2 chain: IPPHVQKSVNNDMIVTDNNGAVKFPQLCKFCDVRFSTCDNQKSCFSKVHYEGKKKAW

Another experiment concerns the target 1D11.
For experiment [3], the target named is T1, TβRII-Fc (TβRII extracellular domain …). The source holds these as a separate data set.
Experiment [4] deals with T2, TβRII-SE/Fc (TβRII-Soluble Endogenous …).

T1 sequence (P37173 23-166): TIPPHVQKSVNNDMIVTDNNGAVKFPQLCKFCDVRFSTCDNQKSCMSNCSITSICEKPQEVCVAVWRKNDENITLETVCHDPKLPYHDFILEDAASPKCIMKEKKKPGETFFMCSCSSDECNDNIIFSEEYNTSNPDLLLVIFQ

B1: TGF-β2 (ligand)
chain: ALDAAYCFRNVQDNCCLRPLYIDFKRDLGWKWIHEPKGYNANFCAGACPYLWSSDTQHSRVLSLYNTINPEASASPCCVSQDLEPLTILYYIGKTPKIEQLSNMIVKSCKCS
Usually koff stands for the rate constant with which the complex falls apart. Lower therefore signals slow dissociation. One may read the Kd as a measure of binding affinity in units of concentration. With B1, the results for the koff (in experiment [1]; in experiment [2]; with 1D11) were 0.0197 s⁻¹, 0.00067 s⁻¹ and 0.0015 s⁻¹, respectively. For the same molecule, the Kd in the experiment with 1D11 was 0.33 nM; in experiment [3], 9.5 nM; in experiment [4] it was 0.674 nM.

B2: TGF-β3 (ligand)
chain: ALDTNYCFRNLEENCCVRPLYIDFRQDLGWKWVHEPKGYYANFCSGPCPYLRSADTTHSTVLGLYNTLNPEASASPCCVPQDLEPLTILYYVGRTPKVEQLSNMVVKSCKCS
Consider B2, for which the results for the koff (in experiment [1]; in experiment [2]; in the experiment with 1D11) were 0.00116 s⁻¹, 0.00018 s⁻¹ and 0.00012 s⁻¹, respectively. For the same molecule, the values for the dissociation constant (Kd) (in the experiment with 1D11; in experiment [3]; in experiment [4]) were 0.068 nM, 0.137 nM and 0.093 nM, respectively.

These data come from article PMC8461249 (2021).
